Measurements as given in PMC4707474, “Identification of a small molecule that simultaneously suppresses virulence and antibiotic resistance of Pseudomonas aeruginosa” (Scientific Reports, 2016).
Blank lines part the entries; values can stand above or below the molecule they belong to.

Assays:
[1] = target: T1, P. aeruginosa DHODase (PyrD, dihydroorotate dehydrogenase) (Pseudomonas aeruginosa, UniProt Q9HZF8); experiment: DCIP-based colorimetric enzyme assay, […] min preincubation, dose-response; type: biochemical
T1 construct: pyrD open reading frame from PAO1 genomic DNA, in pET28a, recombinant Ni-NTA purified

[2] = substrate: O=C1C[C@@H](C(=O)O)NC(=O)N1; experiment: steady-state enzyme kinetics (Km), DCIP colorimetric assay; type: biochemical, Pseudomonas aeruginosa; details: FMN
[3] = substrate: COC1=C(OC)C(=O)C(C)=CC1=O; experiment: steady-state enzyme kinetics (Km) as electron acceptor, DCIP colorimetric assay; type: biochemical, Pseudomonas aeruginosa; details: FMN

- IC50 [1]: 41 µM
Molecule: C[C@@H](NC(=O)CSc1nnnn1-c1ccc(O)cc1)c1ccc(-c2ccccc2)cc1 [compound 14]

B1: P. aeruginosa DHODase (PyrD, dihydroorotate dehydrogenase) (Pseudomonas aeruginosa PAO1) (protein)
chain: MYTLARQLLFKLSPETSHELSIDLIGAGGRLGLNRLLTPKPASLPVSVLGLEFPNPVGLAAGLDKNGDAIDGFGQLGFGFIEIGTVTPRPQPGNPRPRLFRLPQANAIINRMGFNNHGVDHLLARVRAAKYRGVLGINIGKNFDTPVERAVDDYLICLDKVYADASYVTVNVSSPNTPGLRSLQFGDSLKQLLEALRQRQEALALRHGRRVPLAIKIAPDMTDEETALVAAALVEAGMDAVIATNTTLGREGVEGLPHGDEAGGLSGAPVREKSTHTVKVLAGELGGRLPIIAAGGITEGAHAAEKIAAGASLVQIYSGFIYKGPALIREAVDAIAALPRRN
notes: pyrD open reading frame from PAO1 genomic DNA, in pET28a, recombinant Ni-NTA purified
- Km [2]: 60.8 µM
- Km [3]: 25.6 µM
